The test system of experiment [1] is INS-1 cells. Briefly: Uridine incorporation in INS-1 cells. Format: cell-based, rat. To be noted: 5 μg/ml actinomycin D; ICA512-CCF-GFP-transfected INS-1 cells.
The test system of experiment [2] is pro-ICA512. As to conditions: cells stimulated for 2 hours; reference 8; cited from earlier work.
Experiment [3] addresses T1, STAT5b (rat, UniProt P52632 1-786).
T1 sequence (looked up): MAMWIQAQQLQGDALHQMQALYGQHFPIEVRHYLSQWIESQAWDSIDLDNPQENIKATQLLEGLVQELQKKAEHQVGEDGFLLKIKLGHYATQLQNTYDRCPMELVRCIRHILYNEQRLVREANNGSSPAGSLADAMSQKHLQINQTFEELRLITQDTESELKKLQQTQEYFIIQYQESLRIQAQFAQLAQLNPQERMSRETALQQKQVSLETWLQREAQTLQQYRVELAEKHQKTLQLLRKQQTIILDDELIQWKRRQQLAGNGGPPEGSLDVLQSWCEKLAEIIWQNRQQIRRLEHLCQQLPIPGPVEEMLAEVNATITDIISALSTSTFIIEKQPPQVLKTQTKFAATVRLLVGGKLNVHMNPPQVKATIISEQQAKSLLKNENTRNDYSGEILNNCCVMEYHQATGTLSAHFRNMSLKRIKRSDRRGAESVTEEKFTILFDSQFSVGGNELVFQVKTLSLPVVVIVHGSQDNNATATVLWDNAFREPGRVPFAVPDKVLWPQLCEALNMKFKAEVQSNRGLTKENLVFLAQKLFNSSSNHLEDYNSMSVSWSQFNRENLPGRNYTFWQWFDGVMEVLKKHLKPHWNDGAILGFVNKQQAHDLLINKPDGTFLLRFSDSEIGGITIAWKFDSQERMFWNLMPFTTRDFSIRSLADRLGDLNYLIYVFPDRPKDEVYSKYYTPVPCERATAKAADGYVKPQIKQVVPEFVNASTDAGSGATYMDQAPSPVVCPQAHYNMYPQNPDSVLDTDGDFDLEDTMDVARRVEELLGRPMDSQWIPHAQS
Briefly: cell-based or functional assay.

Experiment [4] has as its target T1, STAT5b. The experiment can be described thus: anti-GFP immunoprecipitation from total INS-1 extracts, immunoblot for STAT5b. Here is the method: Immunoprecipitation. INS-1 cells were transiently transfected With one or more of the following constructs: GFP, ICA512-CCF-GFP, ICA512-CCF(K/A⁷⁵⁴)-GFP, SUMO-1 and HA-SUMO-1. Anti-GFP IgGs were used for immunoprecipitations from total or cytosolic extracts. Immunoprecipitates were immunoblotted with anti-STAT5b, anti-PY-STAT5, anti-GFP or anti-HA antibodies. 600 μg and 200 μg protein were used as starting material for immunopreciptation of sumoylated ICA512 and STAT5, respectively.
On the technique in general: A western blot detects proteins with antibodies after separation by electrophoresis.

Experiment [5] deals with T2, PIASy-YFP (mouse, UniProt Q9JM05 2-507).
T2 construct: whole, on cells; Transiently expressed in INS-1 cells; nuclear; not shown: YFP encoded by pEYFP-N2 (Clontech), fused at the C-terminus
T2 sequence (looked up): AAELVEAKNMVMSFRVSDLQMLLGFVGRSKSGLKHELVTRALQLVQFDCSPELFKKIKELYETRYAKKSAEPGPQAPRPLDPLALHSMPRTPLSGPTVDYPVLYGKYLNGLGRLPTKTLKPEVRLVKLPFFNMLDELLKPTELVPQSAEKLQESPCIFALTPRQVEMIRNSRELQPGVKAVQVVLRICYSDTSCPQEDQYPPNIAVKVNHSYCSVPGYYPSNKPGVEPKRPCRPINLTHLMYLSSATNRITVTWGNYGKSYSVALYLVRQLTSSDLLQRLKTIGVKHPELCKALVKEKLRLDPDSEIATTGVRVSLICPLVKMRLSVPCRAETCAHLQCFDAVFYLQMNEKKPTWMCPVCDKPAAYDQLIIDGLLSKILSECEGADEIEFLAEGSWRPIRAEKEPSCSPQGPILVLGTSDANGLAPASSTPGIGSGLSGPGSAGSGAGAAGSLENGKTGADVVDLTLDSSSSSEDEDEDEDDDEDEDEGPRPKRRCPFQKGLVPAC
Briefly: FRET by acceptor photobleaching in nuclei of co-transfected INS-1 cells. As to the method: FRET analysis. INS-1 cells transiently co-transfected with ICA512-CFP, PIASy-YFP, Ism4-YFP and Ism4-CFP were incubated either in resting or stimulating buffer for 90 minutes. Following fixation in 2% paraformahaldehyde, cells were imaged with an inverted […] confocal microscope (Zeiss) using a Plan-Apochromat 100× 1.4 oil DIC objective, The pinhole diameter was set between 1.0 and 1.25 Airy-Unit. […] 458 nm and 514 nm laser lines were used to excite CFP and YFP, respectively. CFP images were acquired with a 458 nm dichroic mirror and a bandpass filter of 475-495, while YFP fluorescence was collected with a 514 nm dichroic mirror and a bandpass filter of 530-600 nm. FRET was assessed by measuring the dequenching of CFP during the photobleaching of YFP performed with the 514 nm laser line at 70% power and for six cycles of 30 sec. each. Mean fluorescence of CFP and YFP were determined by tracing the nuclear perimeter of the cell using the “region of interest” software function. Fluorescence intensity of CFP after photobleaching was normalized to 100% at time 0. In each experiment, 6-9 fields for each slide were photobleached and recorded. Each experiment was independently performed two times.

The target of experiment [6] is T3, in-vitro transcribed and translated [^35S]-labeled PIASy (mouse, UniProt Q9JM05 1-507, [35S]-methionine label).
T3 construct: The mouse PIASy cDNA in pcDNA3.1 is the only untagged PIASy construct described; also called [^35S]-PIASy; [^35S]-methionine-PIASy
T3 sequence (looked up): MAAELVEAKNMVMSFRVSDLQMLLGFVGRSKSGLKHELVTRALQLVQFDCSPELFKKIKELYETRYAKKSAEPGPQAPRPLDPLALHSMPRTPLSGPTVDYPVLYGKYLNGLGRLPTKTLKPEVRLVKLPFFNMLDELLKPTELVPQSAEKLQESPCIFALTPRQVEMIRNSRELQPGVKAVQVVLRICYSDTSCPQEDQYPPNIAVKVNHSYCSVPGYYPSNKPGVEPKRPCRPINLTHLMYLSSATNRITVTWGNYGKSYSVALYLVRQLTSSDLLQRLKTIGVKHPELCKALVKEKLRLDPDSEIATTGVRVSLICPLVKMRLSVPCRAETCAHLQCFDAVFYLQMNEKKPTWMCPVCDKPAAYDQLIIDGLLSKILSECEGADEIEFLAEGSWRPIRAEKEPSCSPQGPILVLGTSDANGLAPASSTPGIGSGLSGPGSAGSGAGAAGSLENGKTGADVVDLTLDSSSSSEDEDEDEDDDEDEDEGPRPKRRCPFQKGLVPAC
Briefly: GST pull-down, SDS-PAGE and autoradiography.

Changes are numbered by the printed parent chain. Starred links: 1 amine or outer side, 2 acyl side, 3 side chain; linkers in the order of their positions; H or OH if unused. Positions of bridges follow the written chain, without caps; N, C: chain ends. Non-standard residues stand in square brackets, D forms with d. Residues, ends and D or L forms follow the SMILES beside them. Chains are numbered I, II in the order given. Actinocin(9to1) = Cc1c2oc3c(C)ccc(C(=O)[*:1])c3nc-2c(C(=O)[*:2])c(N)c1=O; NMeV = CN[C@H](C(=O)O)C(C)C; Sar = CNCC(=O)O Where only a bound is given, the exact number is not on record here.

With `Cc1c2oc3c(C)ccc(C(=O)N[C@@H]4C(=O)N[C@H](C(C)C)C(=O)N5CCC[C@H]5C(=O)N(C)CC(=O)N(C)[C@@H](C(C)C)C(=O)O[C@@H]4C)c3nc-2c(C(=O)N[C@@H]2C(=O)N[C@H](C(C)C)C(=O)N3CCC[C@H]3C(=O)N(C)CC(=O)N(C)[C@@H](C(C)C)C(=O)O[C@@H]2C)c(N)c1=O` [actinomycin D, reference compound] (I: T[dV]P[Sar][NMeV] / II: T[dV]P[Sar][NMeV]; ester I:1-I:C, II:1-II:C; linker I:N-II:N via Actinocin(9to1)), the “effect on the increase of 3H-uridine incorporation” value in experiment [1] is given as “abolished”. Further, the “rapid induction of pro-ICA512” value in experiment [2] is on record as “did not prevent the rapid induction of pro-ICA512”.

B1: ICA512-CCF-GFP (other, not shown: large carriers)
chain: SQFSDAAQASPSSHSSTPSWCEEPAQANMDISTGHMILAYMEDHLRNRDRLAKEWQALCAYQAEPNTCATAQGEGNIKKNRHPDFLPYDHARIKLKVESSPSRSDYINASPIIEHDPRMPAYIATQGPLSHTIADFWQMVWESGCTVIVMLTPLVEDGVKQCDRYWPDEGASLYHVYEVNLVSEHIWCEDFLVRSFYLKNVQTQETRTLTQFHFLSWPAEGTPASTRPLLDFRRKVNKCYRGRSCPIIVHCSDGAGRTGTYILIDMVLNRMAKGVKEIDIAATLEHVRDQRPGLVRSKDQFEFALTAVAEEVNAILKALPQ
Turning to B1, the “luciferase activity of the STAT reporter 8GLE-CAS-FL in hGH-stimulated INS-1 cells, relative to GFP cells” value in experiment [3] was over 500%.

B2: ICA512-CCF(K/A^754)-GFP (other)
chain: B1 chain with K96A
notes: Expressed in INS-1 cells; not shown: GFP encoded by pEGFP-N1 (Clontech), fused at the C-terminus
On to B2, for which the binding result in experiment [4] is “binds”.

B3: ICA512-CFP (other)
chain: B1 chain
notes: The FRET was read in the nucleus, so the partner of PIASy-YFP there is the cleaved cytoplasmic fragment ICA512-CCF-CFP; Its N-terminal limit in cells is not determined; also called ICA512-CCF-CFP (its cleaved cytoplasmic fragment in the nucleus); not shown: CFP encoded by pECFP-N1 (Clontech), fused at the C-terminus
Take B3: in experiment [5], the “fold increase of the recovery of ICA512-CFP signal after photobleaching of PIASy-YFP (FRET), stimulated against resting cells” value was about 5 fold.

B4: GST-ICA512 (800-979) (other)
chain: ESGCTVIVMLTPLVEDGVKQCDRYWPDEGASLYHVYEVNLVSEHIWCEDFLVRSFYLKNVQTQETRTLTQFHFLSWPAEGTPASTRPLLDFRRKVNKCYRGRSCPIIVHCSDGAGRTGTYILIDMVLNRMAKGVKEIDIAATLEHVRDQRPGLVRSKDQFEFALTAVAEEVNAILKALPQ
notes: Bacterially expressed; not shown: glutathione S-transferase (GST) fusion partner
For B4, in experiment [6], the binding result is reported as “no binding”.

The values are drawn from US20090131309A1, “ICA512 COUPLES INSULIN SECRETION AND GENE EXPRESSION IN BETA-CELLS” (Technische Universität Dresden Medizinizche Fakultät Carl …, priority 2004, published 2009).
